Measured values from patent US20230235074A1 (University of Texas, published 2023).
Values belong to the molecule of their own block, whether it stands above or below them.

How the values were obtained:
[1] = biological target: BST2 as expressed endogenously on the surface of human cell lines (B-LCL, MM1, U266, MCF-10A, MCF7, MDA-MB-231, T47D) (human) (UniProt Q10589); assay: flow cytometry on MM1 cells, mAb 1 ug/ml
[2] = biological target: BST2 as expressed endogenously on the surface of human cell lines (B-LCL, MM1, U266, MCF-10A, MCF7, MDA-MB-231, T47D) (human) (UniProt Q10589); assay: flow cytometry on U266 cells, mAb 1 ug/ml
[3] = biological target: BST2 as expressed endogenously on the surface of human cell lines (B-LCL, MM1, U266, MCF-10A, MCF7, MDA-MB-231, T47D) (human) (UniProt Q10589); assay: flow cytometry on MCF7 cells, mAb 1 ug/ml
[4] = biological target: BST2 as expressed endogenously on the surface of human cell lines (B-LCL, MM1, U266, MCF-10A, MCF7, MDA-MB-231, T47D) (human) (UniProt Q10589); assay: flow cytometry on T47D cells, mAb 1 ug/ml
[5] = biological target: BST2 as expressed endogenously on the surface of human cell lines (B-LCL, MM1, U266, MCF-10A, MCF7, MDA-MB-231, T47D) (human) (UniProt Q10589); assay: flow cytometry on B-LCL cells, mAb 1 ug/ml
[6] = biological target: BST2 as expressed endogenously on the surface of human cell lines (B-LCL, MM1, U266, MCF-10A, MCF7, MDA-MB-231, T47D) (human) (UniProt Q10589); assay: flow cytometry on MCF-10A cells, mAb 1 ug/ml
[7] = biological target: BST2 as expressed endogenously on the surface of human cell lines (B-LCL, MM1, U266, MCF-10A, MCF7, MDA-MB-231, T47D) (human) (UniProt Q10589); assay: flow cytometry on MDA-MB-231 cells, mAb 1 ug/ml
[8] = biological target: BST2 as expressed endogenously on the surface of human cell lines (B-LCL, MM1, U266, MCF-10A, MCF7, MDA-MB-231, T47D) (human) (UniProt Q10589); assay: flow cytometry on MM1 cells, mAb not preincubated
[9] = biological target: BST2 medium isoform (BST2-H, 158 amino acids) expressed on HEK293 transfectants; assay: flow cytometry, mAb 1 ug/ml on HEK293-medium cells
[10] = biological target: BST2 as expressed endogenously on the surface of human cell lines (B-LCL, MM1, U266, MCF-10A, MCF7, MDA-MB-231, T47D) (human) (UniProt Q10589); assay: flow cytometry on MM1 cells, mAb preincubated with Spartan protein
[11] = biological target: BST2 as expressed endogenously on the surface of human cell lines (B-LCL, MM1, U266, MCF-10A, MCF7, MDA-MB-231, T47D) (human) (UniProt Q10589); assay: flow cytometry on MM1 cells, mAb preincubated with recombinant BST2 protein as competitor
[12] = biological target: BST2 long isoform (BST2-D, full length BST2, 180 amino acids) expressed on HEK293 transfectants (human) (UniProt Q10589); assay: flow cytometry, HEK293 long transfectant, 1 ug/ml antibody, APC-conjugated secondary antibody
[13] = biological target: BST2 as expressed endogenously on the surface of human cell lines (B-LCL, MM1, U266, MCF-10A, MCF7, MDA-MB-231, T47D) (human) (UniProt Q10589); assay: flow cytometry, MCF7 cells, APC-conjugated secondary antibody (the text prints 34.7% for the same panel)
[14] = biological target: BST2 in human tissue microarray cores; assay: immunohistochemistry, tissue microarray #72070, antigen retrieval H1; Placenta: 0 positive of 1 tested specimen
[15] = biological target: BST2 as expressed endogenously on the surface of human cell lines (B-LCL, MM1, U266, MCF-10A, MCF7, MDA-MB-231, T47D) (human) (UniProt Q10589); assay: flow cytometry dot plot, T47D-WT cells, 26F8 at 2 ug/ml and APC-conjugated secondary antibody; Q4 (unstained) 2.71
[16] = biological target: BST2 in human tissue microarray cores; assay: immunohistochemistry, tissue microarray #72070, antigen retrieval H1; BIDC stroma: 0 positive of 40 tested specimens
[17] = biological target: BST2 in human tissue microarray cores; assay: immunohistochemistry, tissue microarray #72070, antigen retrieval H1; Breast stroma: 0 positive of 8 tested specimens
[18] = biological target: BST2 in human tissue microarray cores; assay: immunohistochemistry, tissue microarray #72070, antigen retrieval H1; Normal breast: 0 positive of 8 tested specimens
[19] = biological target: BST2 in human tissue microarray cores; assay: immunohistochemistry, tissue microarray #72070, antigen retrieval H1; Placenta stroma: 0 positive of 1 tested specimen
[20] = biological target: BST2 in human tissue microarray cores; assay: immunohistochemistry, tissue microarray #78070 (normal tissues), antigen retrieval H1; Parenchymal: 0 positive of 7 tested
[21] = biological target: BST2 as expressed endogenously on the surface of human cell lines (B-LCL, MM1, U266, MCF-10A, MCF7, MDA-MB-231, T47D) (human) (UniProt Q10589); assay: flow cytometry dot plot, T47D-NS (non-silencing transduction) cells, 26F8 at 2 ug/ml and APC-conjugated secondary antibody
[22] = biological target: Recombinant human BST2 protein (Catalog number 13370-H07H, Sino Biological) (human) (UniProt Q10589); assay: BLI (Octet RED384), mAb 5 ug/ml captured on anti-mouse IgG Fc (AMC) biosensors, BST2 protein 15.625-1000 nM, 1:1 model, global fit
[23] = biological target: BST2 as expressed endogenously on the surface of human cell lines (B-LCL, MM1, U266, MCF-10A, MCF7, MDA-MB-231, T47D) (human) (UniProt Q10589); assay: flow cytometry dot plot, T47D cells transduced with BST2-silencing shRNA, 26F8 at 2 ug/ml and APC-conjugated secondary antibody
[24] = biological target: BST2 as expressed endogenously on the surface of human cell lines (B-LCL, MM1, U266, MCF-10A, MCF7, MDA-MB-231, T47D) (human) (UniProt Q10589); assay: flow cytometry dot plot, T47D-NS (non-silencing transduction) cells, 26F8 at 2 ug/ml and APC-conjugated secondary antibody; Q3 6.94, Q4 21.4
[25] = biological target: BST2 as expressed endogenously on the surface of human cell lines (B-LCL, MM1, U266, MCF-10A, MCF7, MDA-MB-231, T47D) (human) (UniProt Q10589); assay: flow cytometry dot plot, T47D cells transduced with BST2-silencing shRNA, 26F8 at 2 ug/ml and APC-conjugated secondary antibody; Q3 58.1, Q4 26.6
[26] = biological target: T1, BST2 long isoform (BST2-D, full length BST2, 180 amino acids) expressed on HEK293 transfectants (human, UniProt Q10589 1-161); assay: flow cytometry, hybridoma supernatant on HEK293-long cells
T1 construct: also called HEK293-long; HEK293 WT-BST2
Description: For flow cytometry assays, cells were detached using 0.05% trypsin-EDTA, counted, washed and resuspend with FACS Buffer (PBS, 2% FBS, 2 mM EDTA). 2×10⁵ cells in 100 ul/well were placed in U-bottom 96-well plate and centrifuged (1000 RPM/3 min/4° C.). The buffer was discarded and 100 ul of the previously collected supernatants with selected monoclonal antibodies were added to the wells and incubated on ice for 30 minutes. After incubation, the plate was washed three times with FACS buffer and 50 ul of diluted (1/250) secondary antibody (Donkey anti-mouse Allophycocyanin (APC) conjugated) were added to the wells and incubated on ice for 20 minutes protected from light. The final wash was repeated 4 times, and the samples were transferred and analyzed at the South Campus Flow Cytometry & Cell Sorting Core Laboratory at MD Anderson Cancer Center. FACS data were analyzed with FlowJo™ Software—for Windows (Version 10.6.1. Ashland, Oreg.: Becton, Dickinson and Company; 2020).

[27] = biological target: T2, BST2 long isoform peptide (BST2-D peptide), positions 133-156 (human); assay: ELISA dilution assay, plate coated with BST2 peptide alone, hybridoma supernatant undiluted and 1/15, 1/225, 1/3375, OD 450 nm (axis unlabelled on the sheet)
T2 construct: Synthetic 24-mer; the free peptide (not KLH conjugated) coated the ELISA plates; also called BST2-Long (D) peptide; BST2 peptide
T2 peptide: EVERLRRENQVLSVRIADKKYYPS
Description: FIG. 5. Dilution assay. 26 positive clones were tested at serial dilutions as described under methods. Sixteen clones with the highest OD450 nm signal (those with squares around their names) were selected for further characterization. LA1-LA16 are clones picked at the first round of colony pickup; BM1-BM10 clones picked at the second round of colony pickup. PC is the positive control using anti-BST2 mAb (Clone 26F8) 1 ug/ml which recognizes all isoforms. Plates were coated with BST2 peptide alone.
To select the hybridomas capable of producing specific monoclonal antibodies against the BST2-D peptide, ELISA was performed. ELISA plates were coated with a 100 ul coating buffer, containing the BST2-D peptide in a concentration of 1 ug/ml, and incubated overnight at 4° C. Next day, ELISA plates were washed three times with PBST (PBS containing 0.05% v/v Tween®-20) and blocked with 100 ul of blocking buffer (PBS, 1% w/v BSA). After 1-hour blocking at room temperature, 50 ul supernatant from each of the 563 colonies were added to individual wells as the primary antibodies. Anti-BST2 mAb (Clone 26F8) [eBioscience] was used as a positive control and blank wells with secondary antibody only were performed in triplicates. Incubation proceeded for 1 hour followed by three washes. […] The reaction was stopped with H₂SO₄ 0.2N and the OD absorbance values were read at 450 nm. […]

Sequence of BST2 as expressed endogenously on the surface of human cell lines (B-LCL, MM1, U266, MCF-10A, MCF7, MDA-MB-231, T47D) (human) (Q10589 1-161, stated change not applied): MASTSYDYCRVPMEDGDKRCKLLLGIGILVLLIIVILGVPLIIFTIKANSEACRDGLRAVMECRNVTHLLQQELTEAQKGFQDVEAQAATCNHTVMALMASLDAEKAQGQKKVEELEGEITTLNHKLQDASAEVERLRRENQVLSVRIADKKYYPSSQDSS
Sequence of BST2 in human tissue microarray cores (chain, as listed by the source limits assumed): as the sequence (Q10589 1-161, stated change not applied) above
Sequence of Recombinant human BST2 protein (Catalog number 13370-H07H, Sino Biological) (human) (Q10589 49-161 limits assumed): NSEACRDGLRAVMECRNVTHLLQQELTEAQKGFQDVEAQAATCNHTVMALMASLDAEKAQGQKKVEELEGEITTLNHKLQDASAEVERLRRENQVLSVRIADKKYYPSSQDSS
T1 sequence (Q10589 1-161 limits assumed): as the sequence (Q10589 1-161, stated change not applied) above
Sequence of BST2 long isoform (BST2-D, full length BST2, 180 amino acids) expressed on HEK293 transfectants (human) (Q10589 1-161 limits assumed): as the sequence (Q10589 1-161, stated change not applied) above

- percentage of cell staining [1]: 99.6%
- percentage of cell staining [2]: 97.1%
- percentage of cell staining [3]: 34.7%
- percentage of cell staining [4]: 96.6%
- percentage of cell staining [5]: 99.7%
- percentage of cell staining [6]: 27.7%
- percentage of cell staining [7]: 28.4%
- percentage of stained cells [8]: 98.2%
- percentage of cells stained [9]: 96.7%
- percentage of stained cells [10]: 98.1%
- percentage of stained cells [11]: 2.6%
- percent of cells stained [12]: 98.7%
- percent of cells stained [13]: 37.7%
- detectable rate (% of tested specimens positive) [14]: 0%
- percent of cells in quadrant Q1 (APC positive, GFP negative) [15]: 97.2%
- detectable rate (% of tested specimens positive) [16]: 0%
- detectable rate (% of tested specimens positive) [17]: 0%
- detectable rate (% of tested specimens positive) [18]: 0%
- detectable rate (% of tested specimens positive) [19]: 0%
- detectable rate (% of tested specimens positive) [20]: 0%
- percent of cells in quadrant Q1 (APC positive, GFP negative) [21]: 13.1%
- Kd [22]: 34.2 nM
- koff [22]: 0.00132 s⁻¹
- kon [22]: 38600 M⁻¹ s⁻¹
- percent of cells in quadrant Q1 (APC positive, GFP negative) [23]: 6.09%
- percent of cells in quadrant Q2 (APC positive, GFP positive) [24]: 58.5%
- percent of cells in quadrant Q2 (APC positive, GFP positive) [25]: 9.27%
Molecule: anti-BST2 monoclonal antibody clone 26F8 (eBioscience)

- percentage of cells stained [26]: 70.9%
- binding result [27]: binds
B1: LA1 antibody (antibody, IgG1, V domains shown)
VH: EVQLQQSGPELVKPGASVKISCKTSGYTFTEDTMHWVKQSHGKSLEWIGGINPNKGGTSYNQKFKDKATLTVDKSSSTAYMELRSLTSEDSAVYYCATLVDYWGQGTTLTVSS
VL: DIVMTQSQKFMSTSVGDRVSVTCKASQNVGTNVAWYQQKPGQSPKALIHSASYRYSGVPDRFTGSGSGTDFTLTISNVQSEDLAEYFCQQYNSYPLTFGAGTKLELK
notes: Mouse hybridoma antibody, isotype IgG1, kappa; Tested as hybridoma supernatant

- percentage of cells stained [26]: 39.8%
B2: BM7 antibody (antibody, IgG1, V domains shown)
VH: QVTLKESGPGILKPSQTLSLTCSFSGFSLSTSGVGVGWIRQPSGKGLEWLAHIWWDDDEYYNPSLKSQLTISKDTSRNQVFLKITSVDTSDTATYYCARRYYGDAMDYWGQGTAVTVSS
VL: DVVMTQTPVSLPVSLGDQASISCRSTQSLVHSNGHTYLHWYLQKPGQSPKLLIYKVSNRFSGVPDRFSGTGSGTDFTLKISRVEAEDLGVYFCSQSTHVPYTFGGGTKLEIK
notes: Tested as hybridoma supernatant
